Measured values reported in IntAct's records for PubMed 31515488.

B1: Kinetochore protein NDC80 homolog (Homo sapiens), O14777 (parent)
chain: MKRSSVSSGGAGRLSMQELRSQDVNKQGLYTPQTKEKPTFGKLSINKPTSERKVSLFGKRTSGHGSRNSQLGIFSSSEKIKDPRPLNDKAFIQQCIRQLCEFLTENGYAHNVSMKSLQAPSVKDFLKIFTFLYGFLCPSYELPDTKFEEEVPRIFKDLGYPFALSKSSMYTVGAPHTWPHIVAALVWLIDCIKIHTAMKESSPLFDDGQPWGEETEDGIMHNKLFLDYTIKCYESFMSGADSFDEMNAELQSKLKDLFNVDAFKLESLEAKNRALNEQIARLEQEREKEPNRLESLRKLKASLQGDVQKYQAYMSNLESHSAILDQKLNGLNEEIARVELECETIKQENTRLQNIIDNQKYSVADIERINHERNELQQTINKLTKDLEAEQQKLWNEELKYARGKEAIETQLAEYHKLARKLKLIPKGAENSKGYDFEIKFNPEAGANCLVKYRAQVYVPLKELLNETEEEINKALNKKMGLEDTLEQLNAMITESKRSVRTLKEEVQKLDDLYQQKIKEAEEEDEKCASELESLEKHKHLLESTVNQGLSEAMNELDAVQREYQLVVQTTTEERRKVGNNLQRLLEMVATHVGSVEKHLEEQIAKVDREYEECMSEDLSENIKEIRDKYEKKATLIKSSEE
partner: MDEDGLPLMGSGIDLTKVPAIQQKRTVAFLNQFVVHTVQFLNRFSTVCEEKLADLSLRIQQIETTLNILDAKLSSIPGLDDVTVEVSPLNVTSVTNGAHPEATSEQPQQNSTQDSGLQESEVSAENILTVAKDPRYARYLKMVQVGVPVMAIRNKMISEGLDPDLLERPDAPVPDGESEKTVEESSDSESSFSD
B2: Nuclear receptor-interacting protein 1 (Homo sapiens), P48552 (parent)
chain: MTHGEELGSDVHQDSIVLTYLEGLLMHQAAGGSGTAVDKKSAGHNEEDQNFNISGSAFPTCQSNGPVLNTHTYQGSGMLHLKKARLLQSSEDWNAAKRKRLSDSIMNLNVKKEALLAGMVDSVPKGKQDSTLLASLLQSFSSRLQTVALSQQIRQSLKEQGYALSHDSLKVEKDLRCYGVASSHLKTLLKKSKVKDQKPDTNLPDVTKNLIRDRFAESPHHVGQSGTKVMSEPLSCAARLQAVASMVEKRASPATSPKPSVACSQLALLLSSEAHLQQYSREHALKTQNANQAASERLAAMARLQENGQKDVGSYQLPKGMSSHLNGQARTSSSKLMASKSSATVFQNPMGIIPSSPKNAGYKNSLERNNIKQAANNSLLLHLLKSQTIPKPMNGHSHSERGSIFEESSTPTTIDEYSDNNPSFTDDSSGDESSYSNCVPIDLSCKHRTEKSESDQPVSLDNFTQSLLNTWDPKVPDVDIKEDQDTSKNSKLNSHQKVTLLQLLLGHKNEENVEKNTSPQGVHNDVSKFNTQNYARTSVIESPSTNRTTPVSTPPLLTSSKAGSPINLSQHSLVIKWNSPPYVCSTQSEKLTNTASNHSMDLTKSKDPPGEKPAQNEGAQNSATFSASKLLQNLAQCGMQSSMSVEEQRPSKQLLTGNTDKPIGMIDRLNSPLLSNKTNAVEENKAFSSQPTGPEPGLSGSEIENLLERRTVLQLLLGNPNKGKSEKKEKTPLRDESTQEHSERALSEQILMVKIKSEPCDDLQIPNTNVHLSHDAKSAPFLGMAPAVQRSAPALPVSEDFKSEPVSPQDFSFSKNGLLSRLLRQNQDSYLADDSDRSHRNNEMALLESKNLCMVPKKRKLYTEPLENPFKKMKNNIVDAANNHSAPEVLYGSLLNQEELKFSRNDLEFKYPAGHGSASESEHRSWARESKSFNVLKQLLLSENCVRDLSPHRSNSVADSKKKGHKNNVTNSKPEFSISSLNGLMYSSTQPSSCMDNRTFSYPGVVKTPVSPTFPEHLGCAGSRPESGLLNGCSMPSEKGPIKWVITDAEKNEYEKDSPRLTKTNPILYYMLQKGGNSVTSRETQDKDIWREASSAESVSQVTAKEELLPTAETKASFFNLRSPYNSHMGNNASRPHSANGEVYGLLGSVLTIKKESE
partner: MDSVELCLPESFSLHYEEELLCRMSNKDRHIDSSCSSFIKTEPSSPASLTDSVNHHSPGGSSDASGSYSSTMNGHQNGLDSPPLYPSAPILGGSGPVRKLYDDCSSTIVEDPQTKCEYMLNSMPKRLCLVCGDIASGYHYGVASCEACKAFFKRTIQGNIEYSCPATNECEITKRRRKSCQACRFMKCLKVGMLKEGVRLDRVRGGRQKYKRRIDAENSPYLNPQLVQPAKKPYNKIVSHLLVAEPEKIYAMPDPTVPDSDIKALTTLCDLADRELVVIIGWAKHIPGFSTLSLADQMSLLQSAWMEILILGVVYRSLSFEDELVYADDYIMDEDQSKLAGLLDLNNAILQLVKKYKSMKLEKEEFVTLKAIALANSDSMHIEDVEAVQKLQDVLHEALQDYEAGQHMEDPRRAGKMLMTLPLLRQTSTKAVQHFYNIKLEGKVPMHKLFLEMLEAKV
B3: Transcriptional repressor p66-beta (Homo sapiens), Q8WXI9 (parent)
chain: MDRMTEDALRLNLLKRSLDPADERDDVLAKRLKMEGHEAMERLKMLALLKRKDLANLEVPHELPTKQDGSGVKGYEEKLNGNLRPHGDNRTAGRPGKENINDEPVDMSARRSEPERGRLTPSPDIIVLSDNEASSPRSSSRMEERLKAANLEMFKGKGIEERQQLIKQLRDELRLEEARLVLLKKLRQSQLQKENVVQKTPVVQNAASIVQPSPAHVGQQGLSKLPSRPGAQGVEPQNLRTLQGHSVIRSATNTTLPHMLMSQRVIAPNPAQLQGQRGPPKPGLVRTTTPNMNPAINYQPQSSSSVPCQRTTSSAIYMNLASHIQPGTVNRVSSPLPSPSAMTDAANSQAAAKLALRKQLEKTLLEIPPPKPPAPLLHFLPSAANSEFIYMVGLEEVVQSVIDSQGKSCASLLRVEPFVCAQCRTDFTPHWKQEKNGKILCEQCMTSNQKKALKAEHTNRLKNAFVKALQQEQEIEQRLQQQAALSPTTAPAVSSVSKQETIMRHHTLRQAPQPQSSLQRGIPTSARSMLSNFAQAPQLSVPGGLLGMPGVNIAYLNTGIGGHKGPSLADRQREYLLDMIPPRSISQSISGQK
B4: Uncharacterized protein C12orf50 (Homo sapiens), Q8NA57 (parent)
chain: MEMQQNCSISCFWETQPLGCVKISCIFYHSKPRNINGLFLPPSSNITLQKEIQEGIPLQSQSQEPLKPQENISRPIHHPLVLKTNFEEEEEVDEQNDASSLWTKTPEEIEEKRAIKEMCYKSGEYYRFHTPPDILSSKSMTPTAEKQLEKPLENGSELQEGDSLTVPTKLSQYERQGEIKTSLHGKPKTDIAAFENGGGDCYVPQRVIFLGVDESEALTEEKEITISKCSNTKDNKDSPHPKHSLTTRLVPTTHVLNATENISMKCREDPSSMNDVQPVKKPHFKGVKKRKWIYDEPQNFPNSGMQRAVQAPRPQNKMSYHRNNKNRNAENASYIHVQRDAVRTVALNAPSRSRPTHGSYNKVHANREPKPNLSPDKYTSTSYNDSAWRKRIPFSKTYSKSEKIYPEPRRNGSK
partner: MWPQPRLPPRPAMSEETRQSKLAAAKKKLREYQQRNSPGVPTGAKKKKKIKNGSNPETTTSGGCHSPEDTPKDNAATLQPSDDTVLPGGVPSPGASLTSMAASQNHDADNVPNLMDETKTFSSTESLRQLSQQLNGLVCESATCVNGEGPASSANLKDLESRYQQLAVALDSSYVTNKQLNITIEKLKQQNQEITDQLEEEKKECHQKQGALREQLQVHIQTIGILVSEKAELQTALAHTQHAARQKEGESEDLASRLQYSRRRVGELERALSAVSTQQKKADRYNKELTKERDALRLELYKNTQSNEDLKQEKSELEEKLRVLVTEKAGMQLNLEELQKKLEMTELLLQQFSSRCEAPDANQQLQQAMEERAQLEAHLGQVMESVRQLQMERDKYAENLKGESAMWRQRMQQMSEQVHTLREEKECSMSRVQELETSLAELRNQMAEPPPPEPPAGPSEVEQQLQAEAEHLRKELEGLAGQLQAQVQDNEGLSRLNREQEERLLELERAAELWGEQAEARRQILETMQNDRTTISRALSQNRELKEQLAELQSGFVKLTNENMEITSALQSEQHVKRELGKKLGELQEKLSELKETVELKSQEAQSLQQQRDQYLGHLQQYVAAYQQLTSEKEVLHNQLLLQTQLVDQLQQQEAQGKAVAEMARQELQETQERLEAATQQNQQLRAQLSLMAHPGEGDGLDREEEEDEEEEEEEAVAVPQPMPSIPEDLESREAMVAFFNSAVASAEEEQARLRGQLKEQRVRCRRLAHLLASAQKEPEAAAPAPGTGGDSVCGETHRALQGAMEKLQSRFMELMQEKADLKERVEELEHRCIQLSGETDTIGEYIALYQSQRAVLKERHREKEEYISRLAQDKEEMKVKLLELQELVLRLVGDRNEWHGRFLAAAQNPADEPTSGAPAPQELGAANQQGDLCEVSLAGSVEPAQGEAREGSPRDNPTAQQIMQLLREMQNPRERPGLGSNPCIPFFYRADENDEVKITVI

Variants of: B1
Settings: with wasc3_human WASHC3, Q9Y3C0

Variant | effect of a mutation on the interaction
E348D | with no effect
S55P | with no effect

Variants of: B2
Settings: with err3_human ESRRG

Variant | effect of a mutation on the interaction
K385I | with no effect

Variants of: B3
Settings: with traf1_human TRAF1, Q13077
traf1_human TRAF1, Q13077, sequence (Q13077 whole entry): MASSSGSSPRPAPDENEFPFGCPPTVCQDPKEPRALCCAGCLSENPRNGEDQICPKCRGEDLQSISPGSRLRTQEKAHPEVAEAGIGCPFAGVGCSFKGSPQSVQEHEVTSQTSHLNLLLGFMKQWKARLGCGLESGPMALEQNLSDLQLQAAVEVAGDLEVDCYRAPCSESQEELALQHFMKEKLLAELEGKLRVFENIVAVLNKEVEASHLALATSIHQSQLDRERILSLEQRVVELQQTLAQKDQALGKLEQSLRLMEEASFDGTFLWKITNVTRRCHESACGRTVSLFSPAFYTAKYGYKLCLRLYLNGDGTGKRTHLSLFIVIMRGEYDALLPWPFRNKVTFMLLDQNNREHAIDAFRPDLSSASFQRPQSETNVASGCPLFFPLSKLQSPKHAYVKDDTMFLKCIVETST

Variant | effect of a mutation on the interaction
A490V | with no effect

Variants of: B4
Settings: with goga2_human GOLGA2, Q08379

Variant | effect of a mutation on the interaction
Q306R | with no effect
W292R | disrupting interaction strength
